What was measured:
[1] = biological target: ΔRSC3; experiment: method not given
[2] = biological target: JR-CSF gp120 N276A (HIV-1) (UniProt P20871); experiment: cell-based or functional assay
[3] = biological target: JR-CSF gp120 D279A (HIV-1) (UniProt P20871); experiment: cell-based or functional assay

**Q.** With VRC-PG04b (antibody) as the substance, how does the fold less binding than to RSC3 [1] read?
**A.** > 100 fold

**Q.** For VRC01 (antibody), which neutralization potency, JR-CSF pseudovirus [2] is on record?
**A.** 4 fold

**Q.** VRC-PG-04 (antibody) was tested. Which neutralization potency compared to wildtype, JRCSF pseudovirus entry [3] did it give?
**A.** < 10%
